Experimental data: patent publication US20240336683A1 (published 2024)
Blank lines part the entries; values can stand above or below the binder they belong to.

Key:
[1] = target: T1, full-length human Siglec15 with C-terminal flag and Myc tags on HEK293 cells (human, UniProt Q6ZMC9 20-328); assay: FACS on Siglec15/HEK293 cells, scFv, anti-His detection
T1 construct: whole, on cells; also called Siglec15/HEK293; HEK293-Siglec 15; not shown: C-terminal flag and Myc tags from pCMV6-Entry vector
T1 sequence (looked up): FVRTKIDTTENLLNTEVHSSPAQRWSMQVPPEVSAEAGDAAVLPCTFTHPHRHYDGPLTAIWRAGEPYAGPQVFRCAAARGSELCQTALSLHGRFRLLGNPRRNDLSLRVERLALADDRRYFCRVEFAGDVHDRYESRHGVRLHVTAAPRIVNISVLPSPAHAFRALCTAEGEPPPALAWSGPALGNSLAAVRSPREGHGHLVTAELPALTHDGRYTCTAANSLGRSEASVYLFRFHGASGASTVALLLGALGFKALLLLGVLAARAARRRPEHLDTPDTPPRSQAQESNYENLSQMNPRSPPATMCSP
Description: […] Cells were spun down at 1200 rpm for 5 minutes at 4° C. to remove primary antibodies. Cells were then washed once with 200 uL of full medium per well. Samples were detected with premixed anti-His Biotin Streptavidin Alexa fluor 647 by adding 100 uL of diluted secondary antibody and incubated at 4° C. for 30 minutes in the dark. Samples were spun down at 1200 rpm for 5 minutes at 4° C. and washed twice with 200 uL of 1×PBS per well. Samples were then reconstituted in 200 uL of 1×PBS and read on Attune NxT cytometer. Analysis was performed using Attune NxT software plotting the overlaying the histogram of anti-Siglec15 scFvs binding onto both negative and target cell lines.

[2] = target: T2, human Siglec15-Fc fusion protein (human, UniProt Q6ZMC9 20-263); assay: SPR Biacore T200; Siglec15-Fc captured on Protein A chip, scFv as analyte
T2 construct: Bought protein (Acro #SG5-H5253 is named for the selection); also called recombinant Siglec 15-Fc fusion protein (Acro #SG5-H5253); human Siglec15-Fc protein; not shown: Fc part of the bought fusion protein
T2 sequence (looked up): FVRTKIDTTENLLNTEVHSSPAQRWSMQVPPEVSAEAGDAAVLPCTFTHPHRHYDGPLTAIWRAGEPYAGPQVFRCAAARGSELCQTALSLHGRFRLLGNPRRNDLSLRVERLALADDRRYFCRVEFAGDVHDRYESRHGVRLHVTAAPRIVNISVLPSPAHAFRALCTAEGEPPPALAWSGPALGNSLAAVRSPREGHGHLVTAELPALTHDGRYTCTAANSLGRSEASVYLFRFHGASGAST
Description: Kinetic analysis of anti-Siglec15 scFvs were assessed by SPR technology with Biacore T200. The assay was run with Biacore T200 control software version 2.0. Protein A sensor chip was used to capture Fc fusion protein in the assay. For each cycle, 1 ug/mL of human Siglec15-Fc protein was captured for 60 seconds at flow rate of 10 ul/min on flow cell 2 in 1× HBSP buffer on Protein A sensor chip. 2-fold serial diluted HIS tag purified anti-Siglec15 scFv was injected onto both reference flow cell 1 and Siglec 15-Fc captured flow cell 2 for 150 seconds at flow rate of 30 ul/min followed by wash for 300 seconds. The flow cells were then regenerated with Glycine pH 2 buffer (GE) for 30 seconds at flow rate of 30 ul/mins. 8 concentration points from 300-0 nM was assayed per anti-Siglec15 scFv in a 96 well plate. The kinetics of scFvs binding to Siglec 15 protein was analyzed with Biacore T200 evaluation software version 3.0. The specific binding response unit was derived from subtraction of binding to reference flow cell 1 from Siglec15 captured flow cell 2.

[3] = target: T2, human Siglec15-Fc fusion protein; assay: ELISA; Siglec15-Fc captured by anti-hFc, scFv titrated, anti-Flag HRP
Description: An ELISA assay was developed to determine the EC50 of anti-Siglec15 antibodies. Briefly, a 384 well plate was immobilized with anti-human Fc antibody at final concentration of 2 ug/mL in 1×PBS in total volume of 25 uL per well. The plate was incubated overnight at 4° C. followed by blocking with 80 uL of superblock per well for 1 hour. Human Siglec 15-Fc was captured through immobilized anti-hFc antibody. Purified anti-Siglec 15 scFvs were 2-fold serial titrated from 200 nM. 25 uL was added to human Siglec15 immobilized wells and incubated for 1 hour with shaking. The Siglec15 binding was detected by adding 25 uL of anti-Flag HRP diluted at 1:5000 in 1×PBST. In between each step, the plate was washed 3 times with 1×PBST in a plate washer. The plate was then developed with 20 uL of TMB substrate for 5 mins and stopped by adding 20 uL of 2 N sulfuric acid. The plate was read at OD450 nm Biotek plate reader and then plotted in Prism 8.1 software.

B3: 2019EP47-A02 scFv (scFv, V domains shown)
VH: EVQLVQSGGGVVQPGRSLRLSCAASGFTFSSYAMHWVRQAPGKGLEWVAVISYDGSNKYYADSVKGRFTISRDNSKNTLYLQMNSLRAEDTAVYYCARSRYSSSLRRYYGMDVWGQGTTVTVSS
VL: AIQLTQSPSSLSASVGDRVTITCQATHDIANYLNWYQQKPGKAPKLLIYAASNLETGVPSRFSGSGSGTDFTFAISSLQPEDIAVYYCQQYDNLPLTFGGGTKVEIK
notes: Tested as a single-chain scFv made in E. coli with a C-terminal flag and 6x His tag
EC50 [1]: 10.6 nM
Kd [2]: 58.8 nM
koff [2]: 0.00149 s⁻¹
kon [2]: 28700 M⁻¹ s⁻¹
EC50 [3]: 21.9 nM

B4: 2019EP47-A05 scFv (scFv, V domains shown)
VH: QMQLVQSGAEVKKPGSSVKVSCKASGGTFSSYAISWVRQAPGQGLEWMGRIIPILGIANYAQKFQGRVTITADKSTSTAYMELSSLRSEDTAVYYCAVNTYYYDSSGYYYEYFDYWGQGTLVTVSS
VL: EIVLTQSPSSLSASVGDRVTITCQASQHINNHLNWYQQKPGKGPKLLIYDVSNLEAGVPSRFSASGSGTDFSFTISSLQPEDFATYYCQQYDSLPLTFGQGTKVEVK
notes: as for B3
EC50 [1]: 88.3 nM
Kd [2]: 2.79 nM
koff [2]: 7.77e-05 s⁻¹
kon [2]: 27900 M⁻¹ s⁻¹
EC50 [3]: 3.35 nM

B5: 2019EP47-C12 scFv (scFv, V domains shown)
VH: EVQLVESGGGLEKPGRSLRLSCTASGFTFGDYAMSWFRQAPGKGLEWVGFITTKPYGGTTEYAASVKGRFTISRDDSKSIAYLQMNSLKTEDTAEYYCTKDSEAYYGSGSYMVGYWGQGTLVTVSS
VL: QSVLTQPPSVSLAPGKTATITCGGDNIENKDVHWYQQKPGQAPVLVIRFAADRPSGIPERFSGSSSGNTATLTISRVEAGDEADYYCQVWQSTRDHPVVVFGGGTKLTVL
notes: as for B3
EC50 [1]: 13.1 nM
EC50 [3]: 9.97 nM

B6: 2020EP032-A08 scFv (scFv, V domains shown)
VH: QVQLQQWGAGLLKPSETLSLTCAVYGGSFSGYYWSWIRQPPGKGLEWIGEINHSGSTNYNPSLKSRVTISVDTSKNQFSLKLSSVTAADTAVYYCARGVYYYDSSGPRDYFDYWGQGTLVTVSS
VL: DIVMTQSPSSLSASVGDRVTITCQASQDISNYLNWYQQKPGKAPKLLIYDASNLKTGVPSRFSGSGSGTDFTFTITSLQPEDIGTYFCQQYGNLPYTFGQGTKLEIK
notes: as for B3
EC50 [1]: 1.6 nM
Kd [2]: 18.1 nM
koff [2]: 0.000842 s⁻¹
kon [2]: 46400 M⁻¹ s⁻¹
EC50 [3]: 5.87 nM

Next, values leading:

EC50 [1]: 0.23 nM
Kd [2]: 10.4 nM
koff [2]: 0.00149 s⁻¹
kon [2]: 143000 M⁻¹ s⁻¹
EC50 [3]: 2.54 nM
B1: 2020EP083-H01 scFv (scFv, V domains shown)
VH: QLQLQESGPGLVKPAETLSLTCTVSGGSVSSGDNLWDWIRQPPGKGLEWIGSIRDSGNPAYNPSLRSRVTISADTSTDQFSLKLTSVTAADTAVYYCARHSDGGYGKIYGMDVWGQGTTVTVSS
VL: DIQLTQSPSFLSASVGDRVTITCRASQAVSTYLVWYLQKPGQAPRLLIYAASTLQSGVPSRFSGSGSGTDFTLTISRLQPEDAGTYFCQQLNSNALVFGGGTKVDIK
notes: as for B3

EC50 [1]: 1 nM
Kd [2]: 10.9 nM
koff [2]: 0.00144 s⁻¹
kon [2]: 132000 M⁻¹ s⁻¹
EC50 [3]: 3.3 nM
B2: 2020EP085-G5 scFv (scFv, V domains shown)
VH: QVQLVQSGAEVKKPGASVKVSCKASGYTFTDYYMHWVRQAPGQGLEWMGWINPNSGGTNYAQKFQGRVTMTRDTSITTAYMELSWLRSDDTAVYYCAREVGTTTTGVDYWGQGTLVTVSS
VL: VIWMTQSPSSLSASVGDRVTFTCQASQDINIYLTWYQIKPGKAPKVLIYDASTLESGVPSRFSGSGFGTHFVFTISSLQPEDFATYYCQHYDSLPLTFGGGTKVEIK
notes: as for B3

EC50 [1]: 0.87 nM
Kd [2]: 1.12 nM
koff [2]: 0.000356 s⁻¹
kon [2]: 318000 M⁻¹ s⁻¹
EC50 [3]: 1.29 nM
B7: 2020EP083-G11 scFv (scFv, V domains shown)
VH: EVQLVESGGGLVEPGGSLRLSCAASGFTFSSYSMSWVRQAPGKGLEWVGRIKSETDGGTTDYAGPAKGKFIISRNDAENTVSLQMNSLKFEDTAVYHCTTDSSSSWFSYSFDNWGQETLVTVSS
VL: EIVMTQSPATLSVSPGERATLSCRASQNVNSNLAWYQQKTGQAPRLLIFGASTRATGIPARFSGSGSGTEFTLTIGSLQSEDFAVYYCQQYNNWPPTFGGWTKVEIK
notes: as for B3
